Reference: patent US20020160011A1, “ADJUVANT COMPOSITIONS FOR VACCINES” (priority 1997, published 2002)

B1: IL-7: other cytokine tested with the QS21/MPL adjuvant (protein, UniProt P13232 26-177, looked up)
Interleukin-7: DCDIEGKDGKQYESVLMVSIDQLLDSMKEIGSNCLNNEFNFFKRHICDANKEGMFLFRAARKLRQFLKMNSTGDFDLHLLKVSEGTTILLNCTGQVKGRKPAALGEAQPTKSLEENKSLKEQKKLNDLCFLKRLLQEIKTCWNKILMGTKEH
B2: IL12: murine IL12 purified from the supernatant of transfected P1HTR cells; heterodimeric cytokine (protein, UniProt P43431 23-215; P43432 23-335, looked up)
Interleukin-12 subunit alpha: RVIPVSGPARCLSQSRNLLKTTDDMVKTAREKLKHYSCTAEDIDHEDITRDQTSTLKTCLPLELHKNESCLATRETSSTTRGSCLPPQKTSLMMTLCLGSIYEDLKMYQTEFQAINAALQNHNHQQIILDKGMLVAIDELMQSLNHNGETLRQKPPVGEADPYRVKMKLCILLHAFSTRVVTINRVMGYLSSA
Interleukin-12 subunit beta: MWELEKDVYVVEVDWTPDAPGETVNLTCDTPEEDDITWTSDQRHGVIGSGKTLTITVKEFLDAGQYTCHKGGETLSHSHLLLHKKENGIWSTEILKNFKNKTFLKCEAPNYSGRFTCSWLVQRNMDLKFNIKSSSSSPDSRAVTCGMASLSAEKVTLDQRDYEKYSVSCQEDVTCPTAEETLPIELALEARQQNKYENYSTSFFIRDIIKPDPPKNLQMKPLKNSQVEVSWEYPDSWSTPHSYFSLKFFVRIQRKKEKMKETEEGCNQKGAFLVEKTSTEVQCKGGNVCVQAQDRYYNSSCSKWACVPCRVRS

Tests used:
[1] = Ability of other cytokines to enhance the effect of the QS21/MPL adjuvant; conditions: cytokine added in place of IL-12
[2] = Systemic toxicity of locally injected IL12 in immunised mice; assay type: in vivo

| Molecule | enhancement of the effect of the QS21/MPL adjuvant [1] | systemic toxicity ([2]; decreased IL12 dose ('at that dose', b48: 10ng or 30 ng as printed)) | systemic toxic effects ([2]; high dose of IL12 (100ng (1000U)/mouse/day), P1A experiment) | systemic toxicity ([2]; high dose of IL12 (1μg/mouse/day), injected locally, P198 experiments) |
| --- | --- | --- | --- | --- |
| GM-CSF: other cytokine tested with the QS21/MPL adjuvant | unable to enhance | – | – | – |
| IFN-γ: other cytokine tested with the QS21/MPL adjuvant | unable to enhance | – | – | – |
| IL-6: other cytokine tested with the QS21/MPL adjuvant | unable to enhance | – | – | – |
| B1 | unable to enhance | – | – | – |
| B2 | – | largely reduced but not totally absent | we observed systemic toxic effects | systemic toxicity with symptoms similar to those observed in a LPS shock |
